The target of experiment [1] is human CD33 antigen (human) (UniProt P20138). The experiment is described as follows: immunoreactivity of the radiolabeled HuM195-DOTA conjugate, Preparation 1; format not described.
Experiment [2] has the same target. Put plainly: immunoreactivity of the radiolabeled HuM195-DOTA conjugate, Preparation 2; format not described.

With “^225Ac-HuM195 (HuM195-DOTA conjugate labeled with thorium cow-generated ^225Ac) (antibody)”, the values for the Immunoreactivity (%) in experiment [1] and in experiment [2] were 72.2% and 82%, respectively.

B1: ^225/7Ac-HuM195 (HuM195-DOTA conjugate labeled with linac/accelerator-generated ^225Ac containing a molar excess of ^227Ac) (antibody, INN chains, looked up, V domains shown)
VH: QVQLVQSGAEVKKPGSSVKVSCKASGYTFTDYNMHWVRQAPGQGLEWIGYIYPYNGGTGYNQKFKSKATITADESTNTAYMELSSLRSEDTAVYYCARGRPAMDYWGQGTLVTVSS
VL: DIQMTQSPSSLSASVGDRVTITCRASESVDNYGISFMNWFQQKPGKAPKLLIYAASNQGSGVPSRFSGSGSGTDFTLTISSLQPDDFATYYCQQSKEVPWTFGQGTKVEIK
modifications: DOTA conjugate labelled with 225Ac/227Ac
In the case of B1, the Immunoreactivity (%) stood at 65.4% in experiment [1] and 83% in experiment [2].

For the origin of these results see US20220125962A1.
